Biological target: HUαβ (Escherichia coli (overexpressed in …, UniProt P0ACF0;P0ACF4 1-90;1-90))
Assay: ITC

Chain of HUαβ (Escherichia coli (P0ACF0 whole entry, chain 1 of 2): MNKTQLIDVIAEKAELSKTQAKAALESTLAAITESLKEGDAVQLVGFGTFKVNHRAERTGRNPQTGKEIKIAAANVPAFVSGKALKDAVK
Chain of HUαβ (Escherichia coli (P0ACF4 whole entry, chain 2 of 2): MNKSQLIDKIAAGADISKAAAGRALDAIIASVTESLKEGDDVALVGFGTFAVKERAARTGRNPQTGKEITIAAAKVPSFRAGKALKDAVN

B1: 38 bp DNA (dsDNA)
DNA 1: CGGTCAGTTCAAGCCCTTCTAAGTTTGTAGACACCAGC
DNA 2: GCTGGTGTCTACAAACTTAGAAGGGCTTGAACTGACCG
binding result: binds

From PMC2649783
